No end group written: not given here.

Test [1] concerns the target recombinant isoform of human Angiotensin Converting Enzyme (rhACE) corresponding to the ectodomain somatic ACE (human), P12821. As to the kind of experiment: cell-based or functional assay.
For test [2], the target named is recombinant isoform of human Angiotensin Converting Enzyme (rhACE) corresponding to the ectodomain somatic ACE (human) (UniProt P12821). As to the kind of experiment: cell-based or functional assay.
For test [3] the target is unchanged. As to the kind of experiment: Enzyme inhibition of rhACE with fluorogenic substrate, Dixon plot and KI=IC50/(1+[S]/Km); 45 min pre-incubation, hydrolytic conditions.

Sequence of recombinant isoform of human Angiotensin Converting Enzyme (rhACE) corresponding to the ectodomain somatic ACE (human), P12821 (P12821 30-1256): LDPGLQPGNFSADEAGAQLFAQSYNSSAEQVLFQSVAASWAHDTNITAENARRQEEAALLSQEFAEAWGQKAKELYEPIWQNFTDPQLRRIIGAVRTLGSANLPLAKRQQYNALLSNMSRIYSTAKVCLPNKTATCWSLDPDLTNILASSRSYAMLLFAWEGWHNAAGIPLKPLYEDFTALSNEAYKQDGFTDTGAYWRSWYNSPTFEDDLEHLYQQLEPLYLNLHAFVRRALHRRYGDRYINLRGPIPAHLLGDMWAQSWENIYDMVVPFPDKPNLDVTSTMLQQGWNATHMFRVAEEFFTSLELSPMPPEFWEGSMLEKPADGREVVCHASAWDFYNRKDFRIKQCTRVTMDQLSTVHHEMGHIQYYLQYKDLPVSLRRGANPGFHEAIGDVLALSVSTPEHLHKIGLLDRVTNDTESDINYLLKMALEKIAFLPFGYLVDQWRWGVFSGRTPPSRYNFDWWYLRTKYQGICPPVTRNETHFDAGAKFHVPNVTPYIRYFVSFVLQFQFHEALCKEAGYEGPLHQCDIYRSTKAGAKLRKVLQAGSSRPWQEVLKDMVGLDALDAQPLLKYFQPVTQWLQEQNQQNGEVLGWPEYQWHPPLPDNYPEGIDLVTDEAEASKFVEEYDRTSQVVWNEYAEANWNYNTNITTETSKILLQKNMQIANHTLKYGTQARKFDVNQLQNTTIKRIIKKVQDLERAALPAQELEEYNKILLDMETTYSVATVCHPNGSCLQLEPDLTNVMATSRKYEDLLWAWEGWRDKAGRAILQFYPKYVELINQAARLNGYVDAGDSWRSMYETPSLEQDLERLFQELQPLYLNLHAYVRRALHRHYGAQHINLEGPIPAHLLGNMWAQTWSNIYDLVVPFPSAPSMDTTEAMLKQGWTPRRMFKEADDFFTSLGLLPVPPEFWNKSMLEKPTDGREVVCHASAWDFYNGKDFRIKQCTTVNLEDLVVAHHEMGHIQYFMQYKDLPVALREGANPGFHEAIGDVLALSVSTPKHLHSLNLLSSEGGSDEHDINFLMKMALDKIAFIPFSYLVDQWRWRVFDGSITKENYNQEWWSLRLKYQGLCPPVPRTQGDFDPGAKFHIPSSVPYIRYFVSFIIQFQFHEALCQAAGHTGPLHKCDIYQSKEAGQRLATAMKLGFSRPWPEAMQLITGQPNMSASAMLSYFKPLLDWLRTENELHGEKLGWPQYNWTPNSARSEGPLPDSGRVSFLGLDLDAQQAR
Sequence of recombinant isoform of human Angiotensin Converting Enzyme (rhACE) corresponding to the ectodomain somatic ACE (human) (P12821 30-1256): as above

Consider Gly-Gly-His (also: Cu(II) complex bound by ATCUN motif) [[GGH-Cu]- copper(II) complex of GGH], for which the IC50 of rhACE inhibition (fluorogenic substrate cleavage) in test [1] was more than 100 µM.
Take YIHPF (also: Cu(II) complex bound by ATCUN motif) [[YIHPF-Cu]- copper(II) complex of YIHPF]: in test [1], the IC50 of rhACE inhibition (fluorogenic substrate cleavage) was more than 100 µM.
As to KGHK [LysGlyHisLys (KGHK) peptide, metal-free], the IC50 of rhACE inhibition (fluorogenic substrate cleavage) in test [1] is more than 100 µM.
Turning to KGHK (also: Cu(II) complex bound by ATCUN motif (free N-term, two peptide N, His3)) [[KGHK-Cu]+ copper(II) complex of KGHK], the IC50 of rhACE inhibition (fluorogenic substrate cleavage) in test [2] is 11 µM. Further, the Ki (usually the dissociation constant of the complex between target and ligand, obtained from inhibition or displacement) in test [3] worked out at 4 µM.
As for YIHPF [TyrIleHisProPhe (YIHPF, Angiotensin II 4-8) peptide, metal-free], the IC50 of rhACE inhibition (fluorogenic substrate cleavage) in test [1] is more than 100 µM.
GGH [GlyGlyHis (GGH) peptide, metal-free]: the IC50 of rhACE inhibition (fluorogenic substrate cleavage) in test [1] was more than 100 µM.
